Measured values: article PMC3259534

Columns and labels:
[1] = molecular target: MRG15 MRG L287A (human) (UniProt Q9UBU8); assay: ITC
[2] = molecular target: MRG15 MRG V268A (human) (UniProt Q9UBU8); assay: ITC
[3] = molecular target: MRG15 MRG M228A (human) (UniProt Q9UBU8); assay: ITC
[4] = molecular target: MRG15 MRG polypeptide (residues 155–323), K201R background (human) (UniProt Q9UBU8); assay: ITC
[5] = molecular target: MRG15 MRG V227A (human) (UniProt Q9UBU8); assay: ITC
[6] = molecular target: MRG15 MRG W172A (human) (UniProt Q9UBU8); assay: ITC
[7] = molecular target: MRG15 MRG R201K (human) (UniProt Q9UBU8); assay: ITC
[8] = molecular target: MRG15 MRG M273A (human) (UniProt Q9UBU8); assay: ITC
[9] = molecular target: MRG15 MRG polypeptide (residues 155–323), K201R background (human) (UniProt Q9UBU8); assay: NMR titration

| Binder | Kd [4] | other results |
| --- | --- | --- |
| DYVQPQLRRPFELLIAAAMERNPTQFQLPNELTCTTALPGSS (domain or fragment) [Pf1 MBD (MRG-binding domain, residues 200–241)] | 12 nM | Kd [1]: 407 nM; Kd [2]: 184 nM; Kd [3]: 75 nM; Kd [5]: 194 nM; Kd [6]: 67 nM; Kd [7]: 23 nM; Kd [8]: 96 nM |
| DYVQPQLRRPFEALIAAAMERNPTQFQLPNELTCTTALPGSS (domain or fragment) [Pf1 MBD L212A] | 35 nM |  |
| DYVQPQLRRPFELLIAAAMERNPTQFQAPNELTCTTALPGSS (domain or fragment) [Pf1 MBD L227A] | 370 nM |  |
| DYVQPQLRRPFELLIAAAMERNPTQAQLPNELTCTTALPGSS (domain or fragment) [Pf1 MBD F225A] | 19000 nM |  |
| DYVQPQLRRPFELLIAAAMERNPTQFQLANELTCTTALPGSS (domain or fragment) [Pf1 MBD P228A] | 85 nM |  |
| ERNPTQFQLPNELT [Pf1 peptide corresponding to the tail segment (residues 219–232)] |  | Kd [9]: 119000 nM |

The remaining binders from weak to strong by Kd [4], led by results:

| Kd [4] | Binder | other results |
| --- | --- | --- |
| 2600 nM | DYVQPQLRRPAELLIAAAMERNPTQFQLPNELTCTTALPGSS (domain or fragment) [Pf1 MBD F210A] |  |
| 280 nM | DYVQPQLRRPFELAIAAAMERNPTQFQLPNELTCTTALPGSS (domain or fragment) [Pf1 MBD L213A] |  |
| 16 nM | Pf1 (aa 114–258) (domain or fragment) ELGHVNGLVDKSGKRTTSPSSDTDLLDRSASKTELKAIAHARILERRASRPGTPTSSASTETPTSEQNDVDEDIIDVDEEPVAAEPDYVQPQLRRPFELLIAAAMERNPTQFQLPNELTCTTALPGSSKRRRKEETTGKNVKKTQ |  |
| 15 nM | DYVQPQLRRPFELLIAAAMEREPTQFQLPNELTCTTALPGSS (domain or fragment) [Pf1 MBD N221E] |  |
